Values quoted from earlier work as cited in article PMC7465696.

Biological target: HP1β CSD (Homo sapiens) (UniProt P83916)
Assay: sedimentation analysis

Kd: < 150 nM
Substance: HP1β CSD (from UniProt P83916)
